Results on 2 molecules are retold here after paper PMC9825183, “A cap 0-dependent mRNA capture method to analyze the yeast transcriptome”.

Data set [1] concerns IFIT1 (His-SUMO removed) (Homo sapiens). In words: MST. The following applies: apparent Kd; 10 nM RNA, protein up to 1 uM; 5' cap 0 (m7Gppp), Vaccinia Capping System; MST: PBS, 5% glycerol, 0.5 mM TCEP, 0.05% Tween20, 22 C. Pull-down: 50 mM Tris pH 7.5, 150 mM NaCl (wash 250 mM), 1 mM DTT, 5 mM imidazole, 0.01% Tween 20, 3 mM.
For another data set, the target named is T1, IFIT1 (6xHis) (Homo sapiens, UniProt P09914 1-478).
T1 sequence: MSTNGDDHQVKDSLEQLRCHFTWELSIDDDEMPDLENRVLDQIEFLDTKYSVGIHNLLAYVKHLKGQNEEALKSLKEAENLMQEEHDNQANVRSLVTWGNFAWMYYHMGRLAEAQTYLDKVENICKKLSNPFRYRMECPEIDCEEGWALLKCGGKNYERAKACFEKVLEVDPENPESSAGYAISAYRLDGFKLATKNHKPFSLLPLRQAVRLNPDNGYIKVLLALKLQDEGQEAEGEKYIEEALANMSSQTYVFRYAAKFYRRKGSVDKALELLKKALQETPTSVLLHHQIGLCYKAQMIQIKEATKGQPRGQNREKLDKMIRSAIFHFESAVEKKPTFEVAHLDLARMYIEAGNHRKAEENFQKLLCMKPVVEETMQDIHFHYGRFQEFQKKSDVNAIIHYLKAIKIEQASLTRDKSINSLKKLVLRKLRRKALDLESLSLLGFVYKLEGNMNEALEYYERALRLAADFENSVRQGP
In words: pull-down; Con-B; mix of four RNAs; poly(dI-dC) 2 ug/ml; 3 mM MgCl2; MST: PBS, 5% glycerol, 0.5 mM TCEP, 0.05% Tween20, 22 C. Pull-down: 50 mM Tris pH 7.5, 150 mM NaCl (wash 250 mM), 1 mM DTT, 5 mM imidazole, 0.01% Tween 20, 3 mM MgCl2, 2 ug/ml poly(dI-dC), 4 C. The following applies: protein: recombinant; tags: 6xHis (pETG10a; tag described as N-terminal); single-stranded 5' end (predicted).

As to Cap 0-100-mer (Cy5), the Kd in data set [1] came to 47 nM.

B1: cap 0 160-mer (ssRNA)
RNA: GAAUACACGGAAUUCCUUUUUUUUUUUUUUUUUUUUUUUUAAGAAAGGCAGACUGCCACAUGCAGCGCCUCAUUUGGAUGUGUCUGGAGUCUUGGAAGCUUGACUACCCUACGUUCUCCUACAAAUGGACCUUGAGAGCUUGUUUGGAGGUUCUAGCAGG
modifications: 5' cap 0 (m7Gppp), Vaccinia Capping System
B1: the binding result with IFIT1 (6xHis) is reported as “binds”.
